Source: US6828304B1, “Peptides for treatment of cancer” (Dabur Research Foundation, priority 2000, dated 2004)
* marks the point of attachment. Butyryl = CCCC(=O)*

Key:
[1] = test system: PTC (primary colon) tumor cells; assay: MTT cytotoxicity assay, PTC cells; assay type: cell-based, human; settings: 48 hours
Description: (§1) The cytotoxic effect of Lipo peptide analogs, DT-A1 (SEQ ID NO: 2), DT-B1 (SEQ ID NO: 3), DT-01 (SEQ ID NO: 4), DT-M1 (SEQ ID NO: 5) and DT-P1 (SEQ ID NO: 6) was studied by MTT assay which is based on the principle of uptake of MTT [3-[4,5-dimethylthiazol-2-yl]-2,5-diphenyl tetrazolium bromide], a tetrazolium salt by the metabolically active cells where it is metabolized by active mitochondria into a blue colored formazan product which can be read spectrophotometrically. Briefly, tumor cells PTC (primary colon) KB (Oral squamous), U87MG (Glioblastoma), HBL100 (Breast), HeP2 (Laryngeal), ECV304 (Endothelial), PA-1 (Ovary) and L132 (Lung) were incubated with the peptide analogs for 48 hours at 37° C. in a 96-well culture plate, followed by the addition of 100 μg MTT and _further incubation of 1 hour. The formazan crystals formed inside the cells were dissolved with a detergent comprising 10% Sodium dodecyl sulfate and 0.01 N HCl and optical density read on a multiscan ELISA reader. The optical density was directly proportional to the number of proliferating and metabolically active cells.

[2] = test system: KB (Oral squamous) tumor cells; assay: MTT cytotoxicity assay, KB cells; assay type: cell-based; settings: 48 hours
Description: as §1

[3] = test system: U87MG (Glioblastoma) tumor cells; assay: MTT cytotoxicity assay, U87MG cells; assay type: cell-based; settings: 48 hours
Description: as §1

[4] = test system: HBL100 (Breast) tumor cells; assay: MTT cytotoxicity assay, HBL100 cells; assay type: cell-based; settings: 48 hours
Description: as §1

[5] = test system: HeP2 (Laryngeal) tumor cells; assay: MTT cytotoxicity assay, HeP2 cells; assay type: cell-based; settings: 48 hours
Description: as §1

L132 (Lung) tumor cells = assay: MTT cytotoxicity assay, L132 cells; assay type: cell-based; settings: 48 hours
Description: as §1

PA-1 (Ovary) tumor cells = assay: MTT cytotoxicity assay, PA-1 cells; assay type: cell-based; settings: 48 hours
Description: as §1

[6] = test system: ECV304 (Endothelial) cells; assay: MTT cytotoxicity assay, ECV304 cells; assay type: cell-based; settings: 48 hours
Description: as §1

[7] = test system: human colon adenocarcinoma (PTC) xenografts; assay: Antitumor activity in PTC xenografts in nude mice; assay type: in vivo
Procedure: The antitumor activity of DT-B1 (SEQ ID NO: 3) was studied in human colon adenocarcinoma (PTC) xenografts in nude mice. PTC tumor xenografts were grown in Balb/c a thymic mice by subcutaneous inoculation of a single cell suspension of PTC cells (15×10^6 cells/100 EL). The tumor bearing animals were divided into 2 groups of three animals each including one group comprising untreated control animals. Treatment with DT-B1 was initiated when the average tumor volumes, as measured using a vernier caliper, were between 1.3 cm^3. Solutions of DT-B1 was prepared at a concentration of 126 μg/ml and intravenously administered to the assigned group of tumor bearing animals at a dose of 12.6 μg/100 μL twice a day so that the total dose of 25.2 μg/day was administered to each animal. The treatment was continued for a period of 14 days.
The antitumor activity of the compounds was monitored by measuring tumor volumes every fourth day using the formula W*W*L*0.4 (W=smaller diameter, L=larger diameter). The percentage inhibition of tumor growth was calculated using the formula (1-tumor volume-treated/tumor volume-control)* 100.

For “n-Butanoyl-Leu-Met-Tyr-Pro-Thr-Tyr-Leu-Lys-OH (Butyryl-LMYPTYLK-OH) [DT-B1]”, the Percentage cytotoxicity ([1]; 1 nM) was 36 ± 1.0%, the Percentage cytotoxicity ([1]; 10 nM) was 44 ± 1.3% and the Percentage cytotoxicity ([1]; 100 nM) was 48 ± 1.7%. The Percentage cytotoxicity ([1]; 1 μM) was 31 ± 1.5%, the Percentage cytotoxicity ([2]; 1 nM) was 21.9 ± 0.5% and the Percentage cytotoxicity ([2]; 10 nM) was 25.9 ± 4.1%. The Percentage cytotoxicity ([2]; 100 nM) was 18.9 ± 3.2%, the Percentage cytotoxicity ([2]; 1 μM) was 14.8 ± 2.3% and the Percentage cytotoxicity ([3]; 1 nM) was 33.9 ± 0.6%. It also gave a Percentage cytotoxicity ([3]; 10 nM) of 39.7 ± 2.7%, a Percentage cytotoxicity ([3]; 100 nM) of 30.7 ± 1.7% and a Percentage cytotoxicity ([3]; 1 μM) of 20.6 ± 1.7%. It also gave a Percentage cytotoxicity ([4]; 1 nM) of 33.0 ± 1.5%, a Percentage cytotoxicity ([4]; 10 nM) of 34.8 ± 1.8% and a Percentage cytotoxicity ([4]; 100 nM) of 33.9 ± 2.8%. It also gave a Percentage cytotoxicity ([4]; 1 μM) of 32.8 ± 2.2%, a Percentage cytotoxicity ([5]; 1 nM) of 8.7 ± 1.5% and a Percentage cytotoxicity ([5]; 10 nM) of 22.9 ± 1.6%. For the same substance, the Percentage cytotoxicity ([5]; 100 nM) was 14.9 ± 5.3%, the Percentage cytotoxicity ([5]; 1 μM) was 12.9 ± 4.4% and the Percentage cytotoxicity (L132 (Lung) tumor cells; 1 nM) was 13.9 ± 1.9%. The Percentage cytotoxicity (L132 (Lung) tumor cells; 10 nM) was 26.8 ± 1.9%, the Percentage cytotoxicity (L132 (Lung) tumor cells; 100 nM) was 10.7 ± 2.6% and the Percentage cytotoxicity (L132 (Lung) tumor cells; 1 μM) was 11.8 ± 2.3%. The Percentage cytotoxicity (PA-1 (Ovary) tumor cells; 1 nM) was 43.9 ± 2.9%, the Percentage cytotoxicity (PA-1 (Ovary) tumor cells; 10 nM) was 45.8 ± 1.2% and the Percentage cytotoxicity (PA-1 (Ovary) tumor cells; 100 nM) was 38.5 ± 1.6%. For the same substance, the Percentage cytotoxicity (PA-1 (Ovary) tumor cells; 1 μM) was 33.7 ± 1.6%, the Percentage cytotoxicity ([6]; 1 nM) was 18.7 ± 5.3% and the Percentage cytotoxicity ([6]; 10 nM) was 19.9 ± 4.2%. For the same substance, the Percentage cytotoxicity ([6]; 100 nM) was 31.9 ± 2.8%, the Percentage cytotoxicity ([6]; 1 μM) was 25.8 ± 2.3% and the “percentage inhibition of tumor growth as compared to controls” value ([7]; day 20, intravenous 12.6 μg twice a day (25.2 μg/day) for 14 days, PTC xenografts in nude mice) was 95.85%. For the same substance, the “antitumor activity on PTC xenografts (in words)” value ([7]; intravenous 25.2 μg/day for 14 days, tumor kinetics till day 20) was “significant antitumor activity”.
